# Numbering of substitutions follows the chain as printed. Names may count otherwise.
# B1: MTSP-1 Q38H/I41A/D60bV/F60eI/ins97aE/F97T/T98G/F99L/C122S/Q175L/Q192E (enzyme)
# chain: VVGGTDADEGEWPWQVSLHALGHGHACGASLISPNWLVSAAHCYIDVRGIRYSDPTQWTAFLGLHDQSQRSAPGVQERRLKRIISHPFFNDTEGLDYDIALLELEKPAEYSSMVRPISLPDASHVFPAGKAIWVTGWGHTQYGGTGALILQKGEIRVINQTTCENLLPQLITPRMMCVGFLSGGVDSCEGDSGGPLSSVEADGRIFQAGVVSWGDGCAQRNKPGVYTRLPLFRDWIKENTGV
# B2: MTSP-1 Q38E/I41V/D60bF/F60eK/Y60gF/F97T/ins97aE/T98G/F99L/C122S/Q175L/Q192G (enzyme)
# chain: B1 chain with H23E, A26V, V47F, I50K, Y52F, E189G
# B3: MTSP-1 Q38H/I41S/D60bA/F60eV/ins97aE/F97T/T98G/F99L/C122S/Q175L/Q192V (enzyme)
# chain: B1 chain with A26S, V47A, I50V, E189V
# B4: MTSP-1 Q38E/I41S/D60bV/F60eK/Y60gW/F97T/ins97aE/T98G/F99L/C122S/G151N/Q175L/Q192D (enzyme)
# chain: B1 chain with H23E, A26S, I50K, Y52W, G146N, E189D
# B5: MTSP-1 I41T/D60bW/F60eH/F97D/ins97aV/T98P/F99L/C122S/G151N/Q175L/Q192G (enzyme)
# chain: B1 chain with H23Q, A26T, V47W, I50H, T92D, E93V, G94P, G146N, E189G
# B6: MTSP-1 Q38H/I41S/D60bT/F60eS/ins97aV/F97D/T98P/F99L/C122S/G151H/Q175A/Q192D (enzyme)
# chain: B1 chain with A26S, V47T, I50S, T92D, E93V, G94P, G146H, L170A, E189D
# B7: MTSP-1 Q38R/I41T/ins97aE/F97T/T98G/F99L/C122S/G151N/Q175L/Q192G (enzyme)
# chain: B1 chain with H23R, A26T, V47D, I50F, G146N, E189G
# B8: MTSP-1 Q38H/I41A/D60bT/F60eH/Y60gW/ins97aE/F97T/T98G/F99L/C122S/Q175L/Q192D (enzyme)
# chain: B1 chain with V47T, I50H, Y52W, E189D
# B9: MTSP-1 Q38H/I41A/D60bE/F60eH/Y60gW/ins97aE/F97T/T98G/F99L/C122S/Q175L/Q192D (enzyme)
# chain: B1 chain with V47E, I50H, Y52W, E189D
# B10: MTSP-1 D60bY/F97T/ins97aE/T98G/F99L/C122S/Q175L/Q192G (enzyme)
# chain: B1 chain with H23Q, A26I, V47Y, I50F, E189G
# B11: MTSP-1 Q38F/I41S/D60bF/F60eR/Y60gF/F97T/ins97aE/T98G/F99L/C122S/G151N/Q175L/Q192V (enzyme)
# chain: B1 chain with H23F, A26S, V47F, I50R, Y52F, G146N, E189V
# B12: MTSP-1 Q38T/I41S/D60bV/F60eR/ins97aV/F97D/T98P/F99L/C122S/G151N/Q175R/Q192V (enzyme)
# chain: B1 chain with H23T, A26S, I50R, T92D, E93V, G94P, G146N, L170R, E189V
# B13: MTSP-1 Q38H/I41A/D60bV/F60eI/Y60gW/F97T/ins97aE/T98G/F99L/C122S/G151N/Q175L/Q192D (enzyme)
# chain: B1 chain with Y52W, G146N, E189D
# B14: MTSP-1 Q38F/I41A/D60bT/F60eG/Y60gW/ins97aE/F97T/T98G/F99L/C122S/Q175L/Q192E (enzyme)
# chain: B1 chain with H23F, V47T, I50G, Y52W
# B15: MTSP-1 Q38K/I41T/ins97aE/F97T/T98G/F99L/C122S/Q175L/Q192A (enzyme)
# chain: B1 chain with H23K, A26T, V47D, I50F, E189A
# B16: MTSP-1 Q38H/I41T/D60bV/F60eQ/F97T/ins97aE/T98G/F99L/C122S/Q175L/Q192G (enzyme)
# chain: B1 chain with A26T, I50Q, E189G
# B17: MTSP-1 Q38H/I41A/D60bT/F60eK/Y60gW/ins97aE/F97T/T98G/F99L/C122S/Q175L/Q192D (enzyme)
# chain: B1 chain with V47T, I50K, Y52W, E189D
# B18: MTSP-1 Q38H/I41S/D60bT/F60eR/ins97aE/F97T/T98G/F99L/C122S/Q175L/Q192E (enzyme)
# chain: B1 chain with A26S, V47T, I50R
# B19: MTSP-1 Q38H/I41A/D60bV/F60eT/Y60gW/ins97aE/F97T/T98G/F99L/C122S/Q175L/Q192E (enzyme)
# chain: B1 chain with I50T, Y52W
# B20: MTSP-1 Q38H/I41A/D60bT/F60eH/Y60gW/F97T/ins97aE/T98G/F99L/C122S/G151N/Q175L/Q192D (enzyme)
# chain: B1 chain with V47T, I50H, Y52W, G146N, E189D
# B21: MTSP-1 Q38H/I41S/D60bS/F60eR/Y60gW/F97T/ins97aE/T98G/F99L/C122S/Q175L/Q192E (enzyme)
# chain: B1 chain with A26S, V47S, I50R, Y52W
# B22: MTSP-1 Q38H/I41S/D60bT/F60eS/F97D/ins97aV/T98P/F99L/C122S/G151H/Q175L/Q192D (enzyme)
# chain: B1 chain with A26S, V47T, I50S, T92D, E93V, G94P, G146H, E189D
# B23: MTSP-1 Q38G/H40R/I41H/D60bH/F60eK/F97T/ins97aE/T98G/F99L/C122S/Q175L/V183A/Q192G (enzyme)
# chain: B1 chain with H23G, H25R, A26H, V47H, I50K, V178A, E189G
# B24: MTSP-1 Q38Y/I41A/D60bL/F60eQ/ins97aV/F97D/T98P/F99L/C122S/G151N/Q175M/Q192A (enzyme)
# chain: B1 chain with H23Y, V47L, I50Q, T92D, E93V, G94P, G146N, L170M, E189A
# B25: MTSP-1 Q38S/I41S/F60eR/F97T/ins97aE/T98G/F99L/C122S/G151N/Q175L/Q192S (enzyme)
# chain: B1 chain with H23S, A26S, V47D, I50R, G146N, E189S
# B26: MTSP-1 Q38H/I41A/F60eA/Y60gW/ins97aE/F97T/T98G/F99L/C122S/Q175L/Q192E (enzyme)
# chain: B1 chain with V47D, I50A, Y52W
# B27: MTSP-1 Q38H/I41S/D60bT/F60eS/Y60gW/ins97aV/F97D/T98P/F99L/C122S/G151H/Q175L/Q192D (enzyme)
# chain: B1 chain with A26S, V47T, I50S, Y52W, T92D, E93V, G94P, G146H, E189D
# B28: MTSP-1 Q38V/I41S/D60bT/F60eT/F97D/ins97aV/T98P/F99L/C122S/G151N/Q175H/Q192S (enzyme)
# chain: B1 chain with H23V, A26S, V47T, I50T, T92D, E93V, G94P, G146N, L170H, E189S
# B29: MTSP-1 Q38H/I41S/D60bA/F60eV/ins97aE/F97T/T98G/F99L/C122S/Q175L/Q192E/Q209L (enzyme)
# chain: B1 chain with A26S, V47A, I50V, Q207L
# Molecular target: plasma purified human complement protein C3 (human) (UniProt P01024)
# Sequence (P01024 23-667, chain 1 of 2): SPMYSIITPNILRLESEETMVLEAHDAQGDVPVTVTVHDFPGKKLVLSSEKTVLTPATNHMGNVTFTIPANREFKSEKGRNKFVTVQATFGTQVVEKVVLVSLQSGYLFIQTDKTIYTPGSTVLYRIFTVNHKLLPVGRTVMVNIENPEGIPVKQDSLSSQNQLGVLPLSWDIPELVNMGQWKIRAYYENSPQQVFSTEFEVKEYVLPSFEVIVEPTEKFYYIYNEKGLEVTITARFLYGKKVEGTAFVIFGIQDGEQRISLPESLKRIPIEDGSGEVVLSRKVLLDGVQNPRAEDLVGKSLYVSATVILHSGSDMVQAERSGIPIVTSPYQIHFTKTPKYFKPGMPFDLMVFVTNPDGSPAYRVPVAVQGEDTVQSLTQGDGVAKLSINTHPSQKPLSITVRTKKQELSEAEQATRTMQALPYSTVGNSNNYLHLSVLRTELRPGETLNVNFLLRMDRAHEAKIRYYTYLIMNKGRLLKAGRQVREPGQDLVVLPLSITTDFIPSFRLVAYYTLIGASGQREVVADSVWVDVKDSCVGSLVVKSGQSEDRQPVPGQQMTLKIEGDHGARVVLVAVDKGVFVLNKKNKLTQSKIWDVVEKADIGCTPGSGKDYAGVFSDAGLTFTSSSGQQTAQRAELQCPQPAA
# Sequence (P01024 672-1663, chain 2 of 2): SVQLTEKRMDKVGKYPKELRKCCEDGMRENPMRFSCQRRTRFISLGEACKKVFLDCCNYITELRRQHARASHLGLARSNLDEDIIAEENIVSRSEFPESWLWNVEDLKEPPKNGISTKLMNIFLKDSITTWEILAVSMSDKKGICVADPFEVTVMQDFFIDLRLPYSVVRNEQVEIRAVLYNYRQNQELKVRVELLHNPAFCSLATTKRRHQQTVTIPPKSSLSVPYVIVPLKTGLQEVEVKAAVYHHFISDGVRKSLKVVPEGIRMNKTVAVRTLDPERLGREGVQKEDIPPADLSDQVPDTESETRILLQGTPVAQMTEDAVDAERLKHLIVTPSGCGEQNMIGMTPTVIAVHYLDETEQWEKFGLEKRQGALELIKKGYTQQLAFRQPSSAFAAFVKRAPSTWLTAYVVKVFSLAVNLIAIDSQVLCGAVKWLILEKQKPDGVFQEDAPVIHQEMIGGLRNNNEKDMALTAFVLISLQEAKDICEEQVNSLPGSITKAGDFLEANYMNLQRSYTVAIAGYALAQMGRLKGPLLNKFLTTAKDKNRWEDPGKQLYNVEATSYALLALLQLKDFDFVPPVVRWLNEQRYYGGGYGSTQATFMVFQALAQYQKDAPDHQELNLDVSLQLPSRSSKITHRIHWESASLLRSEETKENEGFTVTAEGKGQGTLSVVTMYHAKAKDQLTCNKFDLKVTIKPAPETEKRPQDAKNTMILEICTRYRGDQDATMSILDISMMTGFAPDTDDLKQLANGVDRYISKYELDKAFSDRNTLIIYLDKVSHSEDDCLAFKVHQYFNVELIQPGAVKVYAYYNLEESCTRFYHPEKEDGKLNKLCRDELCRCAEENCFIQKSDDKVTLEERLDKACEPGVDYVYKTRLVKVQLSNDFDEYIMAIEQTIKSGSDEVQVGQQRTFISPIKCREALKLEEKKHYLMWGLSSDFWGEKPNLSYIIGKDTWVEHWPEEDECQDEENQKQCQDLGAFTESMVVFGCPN
# Test: cell-based or functional assay
row,Binder,EC50 of hC3 cleavage [nM]
1,B1,7.64
2,B2,14.2
3,B3,10.9
4,B4,12.1
5,B5,3.1
6,B6,67.8
7,B7,30.6
8,B8,2.28
9,B9,5.38
10,B10,4.1
11,B11,1.96
12,B12,15.7
13,B13,2.91
14,B14,1.25
15,B15,37.8
16,B16,4.93
17,B17,3.82
18,B18,15.4
19,B19,1.39
20,B20,6.95
21,B21,8.35
22,B22,45.4
23,B23,27.7
24,B24,1.53
25,B25,6.26
26,B26,5.93
27,B27,12.6
28,B28,18.5
29,B29,16.9

# — US20240018502A1
